Here are results for three molecules from patent publication US20050153395A1 (CHILDREN S HOSPITAL, published 2005).

First the molecules themselves.
B1: CTGF4 mutant M1 (I257A, R258A, T259A, P260A) (ligand)
chain: EENIKKGKKCAAAAKISKPIKFELSGCTSMKTYRAKFCGVCTDGRCCTPHRTTTLPVEFKCPDGEVMKKNMMFIKTCACHYNCPGDNDIFESLYYRKMYGDMA
B2: CTGF4 mutant M4 (E269A, L270A, S271A, G272A) (ligand)
chain: EENIKKGKKCIRTPKISKPIKFAAAACTSMKTYRAKFCGVCTDGRCCTPHRTTTLPVEFKCPDGEVMKKNMMFIKTCACHYNCPGDNDIFESLYYRKMYGDMA
B3: CTGF4 mutant M3 (P265A, I266A, K267A, F268A) (ligand)
chain: EENIKKGKKCIRTPKISKAAAAELSGCTSMKTYRAKFCGVCTDGRCCTPHRTTTLPVEFKCPDGEVMKKNMMFIKTCACHYNCPGDNDIFESLYYRKMYGDMA

integrin αvβ3 on activated rat hepatic stellate cells (HSC), sequence (Q8R2H2 26-787): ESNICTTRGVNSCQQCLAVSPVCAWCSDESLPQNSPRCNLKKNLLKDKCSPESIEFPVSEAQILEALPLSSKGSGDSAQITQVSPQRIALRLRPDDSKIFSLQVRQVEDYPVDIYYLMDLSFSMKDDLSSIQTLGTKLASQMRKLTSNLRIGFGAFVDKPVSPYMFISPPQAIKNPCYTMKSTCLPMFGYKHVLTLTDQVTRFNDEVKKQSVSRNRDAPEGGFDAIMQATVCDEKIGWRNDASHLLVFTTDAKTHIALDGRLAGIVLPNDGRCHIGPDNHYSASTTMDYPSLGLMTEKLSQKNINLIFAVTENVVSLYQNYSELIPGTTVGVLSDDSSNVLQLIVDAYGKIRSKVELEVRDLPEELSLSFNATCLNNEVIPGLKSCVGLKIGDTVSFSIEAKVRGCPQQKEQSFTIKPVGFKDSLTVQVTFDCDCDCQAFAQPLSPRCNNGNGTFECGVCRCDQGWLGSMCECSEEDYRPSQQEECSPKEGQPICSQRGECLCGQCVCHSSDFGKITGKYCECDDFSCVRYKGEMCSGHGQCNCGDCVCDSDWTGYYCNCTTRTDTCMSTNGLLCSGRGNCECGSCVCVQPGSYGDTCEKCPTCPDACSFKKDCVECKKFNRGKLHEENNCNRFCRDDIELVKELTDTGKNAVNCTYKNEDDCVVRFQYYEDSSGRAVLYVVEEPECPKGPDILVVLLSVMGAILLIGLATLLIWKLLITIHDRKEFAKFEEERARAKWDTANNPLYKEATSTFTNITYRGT

The assay has as its target integrin αvβ3 on activated rat hepatic stellate cells (HSC) (rat, UniProt Q8R2H2 26-787). In words: cell-based or functional assay.
As for B1, the “HSC adhesion, level relative to wild-type CTGF4” value amounted to 33%.

Turning to B2, the “HSC adhesion, level relative to wild-type CTGF4” value turned out to be 46%.

On to B3, for which the “HSC adhesion, level relative to wild-type CTGF4” value was 80%.
